# Biological target: the molecule itself
# Assay: SEC
protein,measurement,value
"MgtE Mg2+ channel from Thermus thermophilus (wild type) (natural protein, UniProt Q5SMG8 1-450, looked up) MEEKLAVSLQEALQEGDTRALREVLEEIHPQDLLALWDELKGEHRYVVLTLLPKAKAAEVLSHLSPEEQAEYLKTLPPWRLREILEELSLDDLADALQAVRKEDPAYFQRLKDLLDPRTRAEVEALARYEEDEAGGLMTPEYVAVREGMTVEEVLRFLRRAAPDAETIYYIYVVDEKGRLKGVLSLRDLIVADPRTRVAEIMNPKVVYVRTDTDQEEVARLMADYDFTVLPVVDEEGRLVGIVTVDDVLDVLEAEATEDIHKLGAVDVPDLVYSEAGPVALWLARVRWLVILILTGMVTSSILQGFESVLEAVTALAFYVPVLLGTGGNTGNQSATLIIRALATRDLDLRDWRRVFLKEMGVGLLLGLTLSFLLVGKVYWDGHPLLLPVVGVSLVLIVFFANLVGAMLPFLLRRLGVDPALVSNPLVATLSDVTGLLIYLSVARLLLEAV",stoichiometry N,2

# Reference: publication PMC7116351 (Protein expression and purification, 2019)
